The text below walks through data of paper PMC8422858.

The target of the experiment is His-tagged recombinant human apolipoprotein L3 (rHis-APOL3) (human). Briefly: native MS.

Consider “His-tagged recombinant human apolipoprotein L3 (rHis-APOL3) (natural protein)”, for which the stoichiometry N is 2.
